From patent publication US20200031927A1
pKd: −log10 of the molar value.

Legend:
[1] = target: soluble KIR3DL1*001-Fc (human) (UniProt P43629); experiment: SPR (BIACORE T-100)
[2] = target: soluble KIR3DL1*002-Fc (human) (UniProt P43629); experiment: SPR (BIACORE T-100)
[3] = target: soluble KIR3DL1*033-Fc (human) (UniProt P43629); experiment: SPR (BIACORE T-100)
[4] = target: soluble KIR3DL1*002-Fc (human) (UniProt P43629); experiment: SPR (BIACORE T-100), kinetics

soluble KIR3DL1*002-Fc (human), sequence (P43629 other isoform, or with tags, fused parts or gaps): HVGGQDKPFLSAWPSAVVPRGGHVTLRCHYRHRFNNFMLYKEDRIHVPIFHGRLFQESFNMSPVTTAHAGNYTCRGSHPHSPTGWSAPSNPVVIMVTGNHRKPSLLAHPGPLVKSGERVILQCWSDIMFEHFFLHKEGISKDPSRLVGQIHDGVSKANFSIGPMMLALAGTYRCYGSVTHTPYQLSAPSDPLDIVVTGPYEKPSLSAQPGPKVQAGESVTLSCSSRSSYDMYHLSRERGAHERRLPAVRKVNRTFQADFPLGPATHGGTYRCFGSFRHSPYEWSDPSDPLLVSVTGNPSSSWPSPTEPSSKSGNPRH
soluble KIR3DL1*033-Fc (human), sequence (P43629 other isoform, or with tags, fused parts or gaps): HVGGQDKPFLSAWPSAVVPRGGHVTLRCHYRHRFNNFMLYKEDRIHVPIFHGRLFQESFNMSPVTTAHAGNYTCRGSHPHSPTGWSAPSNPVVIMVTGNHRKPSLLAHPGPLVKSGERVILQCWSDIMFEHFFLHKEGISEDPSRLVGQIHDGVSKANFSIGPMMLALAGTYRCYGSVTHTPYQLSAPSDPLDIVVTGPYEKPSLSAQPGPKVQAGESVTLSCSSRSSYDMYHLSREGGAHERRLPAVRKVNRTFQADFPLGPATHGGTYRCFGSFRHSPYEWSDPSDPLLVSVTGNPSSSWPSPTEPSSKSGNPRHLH

DX9 (PHB4385) (antibody)
pKd [1]: 7.85
pKd [2]: 7.51
pKd [3]: 8.07
pKd [4]: 7.51
koff [4]: 0.000992 s⁻¹
kon [4]: 32400 M⁻¹ s⁻¹
